Data taken from article PMC4320835.

Molecular target: wild-type H3 A/Perth/16/2009 recombinant hemagglutinin (rHA) (influenza A virus, H3 A/Perth/16/2009)
Assay: cross-linking

Substance “wild-type H3 A/Perth/16/2009 recombinant hemagglutinin (rHA) (natural protein)” has a percent cross-linked after 1 month at 25°C of 72%.
